# According to patent US20230226096A1 (Orna Therapeutics, Inc., priority 2020, published 2023):
# B1: Aquamavirus (nucleic acid, listed as Aquamavirus sp.)
# DNA: TTCAAAGGTGGCGGGAGAGTTGGCCTCACGCTGTTTAGCGTGAGAGCTGGCTCTCCTGCCCCTTCCCCTGAGCCGGGGATCTTGGCTCATTCCCCTCTTTTCTATCCTCCCTCATTGGACTTTACGGATGACCCGGCATAAACTTGACAACCGATGTTGGATTTCCCTTGTGGCTGTGATGGAGGACATACCCTCGGGTGTAGTTGTGTGCGTGTCGCTCTGCGACTCGAGCTTCAAAGTGGTGCTGAAATATTGCAAGCGTCGTTGCTCGATTAACGGAGTGGTACAATCCTATGAACCCAAGTGCATTCATGCGAAAGCCCCGGAGGGGTGAGTAGCATGGACTCGAATCAGAAGAGCTGGAGCTCGCTTGGTACGGCACGTAGCATTGCTTTGCCTAAAGACCAAGGGGGTATGGCTATAGGTGGGGGCCTATAGCTTGTCCAGTGCTGGTTGACAGACTCGTGCTACGCGTCTGGTTCGAGTATAAGTAGCTGCAACTCACT
# B2: RhPV (nucleic acid)
# DNA: GATAAAAGAACCTATAATCCCTTCGCACACCGCGTCACACCGCGCTATATGCTGCTCATTAGGAATTACGGCTCCTTTTTTGTGGATACAATCTCTTGTATACGATATACTTATTGTTAATTTCATTGACCTTTACGCAATCCTGCGTAAATGCTGGTATAGGGTGTACTTCGGATTTCCGAGCCTATATTGGTTTTGAAAGGACCTTTAAGTCCCTACTATACTACATTGTACTAGCGTAGGCCACGTAGGCCCGTAAGATATTATAACTATTTTATTATATTTTATTCACCCCCCACATTAATCCCAGTTAAAGCTTTATAACTATAAGTAAGCCGTGCCGAAACGTTAATCGGTCGCTAGTTGCGTAACAACTGTTAGTTTAATTTTCCAAAATTTATTTTTCACAATTTTTAGTTAAGATTTTAGCTTGCCTTAAGCAGTCTTTATATCTTCTGTATATTATTTTAAAGTTTATAGGAGCAAAGTTCGCTTTACTCGCAATAGCTATTTTATTTATTTTAGGAATATTATCACCTCGTAATTATTTAATTATAACATTAGCTTTATCTATTTATA
# modifications: Rhopalosiphum padi virus
# B3: Avisivirus B (nucleic acid)
# DNA: CACCCCCTACTGCCCTAACCCCCAAAGTTAGTTATAGGGTGGCTCCCTACCCTTACTCCACGGGGTAAGCCCTAACCCGGTTGAATCTCAAGATCAGCCTTAGCGAGGACTATTAGTACCGCTCAAACCCTTTGCCTGTAGTGCCCAGGGGTCACAGAGGGGTGACCCTCTCCCTGGGGCCCAAAAGGCTAGGTGGCAAGACAGGGTCCAAGTGAGGGGCTACTCTAAGTAGCCCCAAGCTGAACATCCTGTCTGAAGCCACCCTTGCAGGGCCAGGTTTGATTGGGGAAACTAGACACCAGCTTTGTCCTGGGATTGGGGGGATATCGAGTTAGTCCAGGAGGTGCGAGTAGATGCCCCCGAAGGTACCCCAGGCACATCTGGGATCTGATCGGGGGCCCGTGACTATACAATAGGTAAACCGGGTTAAAAAACATGAAAGCGCCTCTCTCTTTCCTACTTCTTTTATTGACTGGTGACAAAAATAGCAGT
# modifications: Avisivirus B
# B4: Hepatovirus H2 (nucleic acid, listed as Hepatovirus sp.)
# DNA: GTCATGTTTCTCTTTAAGAACACTCAATTTTGGCCATAAGTGAGACTCTTGTCGAACCTTTCATGTCAGGACCATGTTAGGGCCATTATCCTTTTCCCTGGGGCATTCTTCTTGCCCCTGTTTCATCTTTCTATCATCTTTCTTCCGGGCTCTCACAATGCCAATGGAGCGACCGATGCGCACGTCGGGGTTAACCCATGGATTAGCCATGGGCTGTAGCTGCTAAAAGTTGTGACTCCTGAAGCATACTATCAATGGTAGTAGATGTAACTGAAACACTGAAGCTTCTCTGATCTTGAAAGAAGGGTAGGCTACGGGTGAAACCCTTCAGGTTAATACTCATATTGAGAGATACCTTTGGTAGGTTAACGTTGGCGGATAATGTTGAGTTTAACGACAATAAACATTCAACGCCTGTGGGCGAACCTCACCAATTTCATGCTTTGAAGTGAATGTGCGTAGGGTCTCTATCGGAGATGCTATGTGGATGGTGCCCTCCCTGGAAACAGGTTGTAGGGGTACTCAGGTGCACTTAGGTTTCCACATTTTAAAGATTTTTC
# B5: Fipivirus C (nucleic acid)
# DNA: CGCGGTTAAACCCGCGCAACCTTCTTTCAGCCGCGTCTGAGTAGCGCGGTTAGTCCTGATACACAGTTTCCTGTTGGGTACTGTGTCTTCGGGTGAATGCTCTTGTGTGAATGTTTTAGGCTGTTTAAGGGAAGCGTTTCCCCGTGCGCTGTGAGGGTTTCTCACGCTCTTTCGGGGTGCAGTCTCTTCTGTTGTTCATTAAGATGTATGGATGCACTGTTGTGAAGGATTTGTGAACTGGGGATCGACACCCCGTGAGGGGTGCCCCAGTGTCCATAGGAGTTTGCTGGAGAGGTGTGTTGCTGTAGTGACTATCCGTGACCTGGCATTCTAAGGTGTTGACCCCAACCTGTGAGGGTCTGGATCGCAGTGTTGAAGTGCTTTGGAGGGTTCAATGGGGTTTCTGTAGTGGATATTATGTGCTTGACGACTACTGGTACGAGTGTATTGGGGGTCTACATGTGTGA
# modifications: Fipivirus C
# B6: Hepatovirus C (nucleic acid)
# DNA: TTCAAAAGCCCCAGCGGGGTTTCATTACCCCGCTGTGGCTTTTGGACTTCCCTAGGATGGGGAAGTAAATTACCATCCTCGCGTTTGCCGTGCGTTAACGGCTACTTTTCTTCTAGCTGTAGAAGTAAAATTCAGCATGTTTTATGTTTGTTTGTCTTGTTTGTTATATACATTTTTACACTCCTACAAATGCACATGAAGAACAGTTTGTAGAGATTAACAAACGCTTAGCTGAACCTAGGTGGTGAATCTAGTAGTAAGATAAGTAGAGGAAGCTATACCTTAAGTTGGTTGGGCCCTCGTGTTTGCTCTATAAACAAAACCAAGTGAGTAGAGTGGATGAACAGTACTAAATCCCTGAGTACAGGGAACCTCACAGGTGTGATACACTTATGTCTATGTGACCTGGTTGGAGGTTGGGCGTGCCCTATGATACTGGAGTGGGAGATCTTTTGGGGAACCCACGTTTTCACACTGCCTGATAGGGTCTTGCCGAGAGACTCACTTGTTTCGGCTGTACTTGTAAC
# modifications: Hepatovirus C
# B7: Fipivirus A (nucleic acid)
# DNA: TGCGGGTAAACTCCCGCATGTGTGAATGAGGCGATGTCCCAGGAACTAACTGCCGATCCTGGTTTTAACTACGATCCGTATTTGTTACTAATGCGATATCCCCCCATTGTTTGCCTCCATGTTGTTTTCAACGCTTTTGGCCTTGAGTGTTATCAAGTGTTTTAGCGACATAGTGGGAAGCTACGGCTGCGTCCCCATTTTTGAGTGGCGACCCAGTTTTAGTGGCCACTCTGTCCCTGAACTGCGCTATAATGTGAATTTATGTTCACAAAAACGGACTGATGTAACTGTTAATGACTAAGGAATAGTACCTCACTGAAGTATCAAGACCCCGTTCGAGCGGTGTACATATATGGATGGAAACCTTGTCTGAGTCATCTCGAATACTAATCAATGAGGGATGTCGAGTAAGCATATCATGAACCACATAGAATAGTGGGGTTTCGGGGTTAGAGGCTCTCTGCAGCAATGTATCTCTAACACCATGGCCGAAATGAGAGATAGAGACCACGATGTTTGTGTGTAAGTAATGATGTGTGGAAAGAAAATTCTGAATGTTGGTATGATATCAGTCTAAGGGGAGTGGCTCACCTAAGAGCTACCCAAACATTTCACAGCAGACAACATAACGTACTGAGAGTAGTTGGAAGGTTCCAGAAATCAGT
# modifications: Fipivirus A
# B8: Fipivirus E (nucleic acid)
# DNA: CTCTTCCGATCTTGGGGGTTCGCCCCCATGTCTCATTTCAACTAGCCGTGTGTCTAGTTAACGCACCGCCTCACCCTGGTCGTTATCGGGTCGGTTCTTGCGACCGTTAGATCGTGAGCGTTTCTGAGGATCAGTTCGTATAAGTTCTCCGGTGTGGCGACCGTAAAATCGTCACGTCCCATGCAATAGATGACGTTAAACTCGTTTGCCAGTTACATAAAGGAATGTTGTTACTTTTAAATTGTCTGTTACATTTAACATCTTGCCAGTATGATGCTACTGTACACTACGGGTGTAGGAACCTTGTAGTGTGACGTATCACTCATATGTGGATGGGTGCTCCAGACCTTTATGGAAGCTCTCAGTTAGTAGTGATCCTTGACTTCATTGAGCCCTGGTAACAGTGGAAGTCAAGATGTATATGTTGCTCAACACACTTCGGTGCTACGAAGCTGTTTGTGGAAGTACTGGCGAGGTTCATTCTGAATCATATGTTTGTCACATAGTCAGGGAGTGCCGTCGCTTACGACGGACCCTTTTTCTTTATAATTACAAATCTGTGTCTCAAGTGTTGTTGGCTGGTTTTCTTCTTCTGTTTTCATTGTTCATATATATACGTCAGAGTGAAAGACTCGGTATATACAAAACTGATCCAGA
# modifications: Fipivirus E
# B9: Hepatovirus I (nucleic acid)
# DNA: GGCTGCCTGTGTCTCAGGGGTAAGTACTGGGGCCGCGTTGACCGTGCGGTACGGTTATGCTTTTAGATTAGGATGTCCGTCTGTCCGGCACTCTCTTTTGCTTAAAATGGCCTTAAATCCATGGGAGGCGTAACCATGGGCCCTTTGTTACCTAGACATGATTGCATTGGGGGCCGTCCTTGGGGCTTAGGCCCCAGCCATTTCTCTTGACTCGTCTAAGAGTTTACTTCATCCTTTTCTTTACTTTATTTTCCAGGCTCTCAGCATGCCGACGGCTCTGACCACTGCGCCCGGTGGGGTTAACTGCATGATTAGCATGCAGCTGTAGGAGTTAAAAGTGCTGACAGGCCAATTCTGACGTAAGTCCACTCTATATTAACTTGATCAAGTAAGGTTGATTGATCTTTGTGAGAGGGTAGGCTACGGGTGAAACCCTCTAGGTTAATACTCATATTGAGAGATACCTCCAGAAGGTGAAGGTTGGCGGATATTGGTGAGTTCTTTTAGGACAAAAACCTTTCAACGCCTGTGGGCCCACCTCACTGGCACAATGCTTTCATCCCCAATTGTGATGGGTAGTTTGGACTGAAATCAGGAGTAACCTGCCCTACGAGTTTAGGGGTAGTTCAGGGGTATTTAGGCTTCCACATTTGATAGAGTTTATGAGAGTGAGCC
# modifications: Hepatovirus I
# B10: Avisivirus A (nucleic acid)
# DNA: TTCACTCGCTTTCCCCCCCTCTCTATAGGGGCGGTCTTTTAATTCTTATTAATTTCCTACTTTACTATCAAATTTCTTCTAAGTAGGGACTGAGGTCACTTAGCCCTCCCTCTCCTGGGCTTTCCAGGGTTATAGAGGTTCTAAAGCTAAGCCATGTGTCTTGAGCTACACTTAGTACAAAGGTTTAGTAATGATTGTACATGCCAGTAACCTTCTAGTGCCCATGGATTAAAGAGTGGTAACACTCTCCATGGGGCCCGAAAGGCTAGTGGGCATAGTTGGCATCAAGGAAGGGGTCCCCACCCCAACCTGAATTGCTGGCTAGAAGCTCACCTTAGAAGAAGTGCTGGGTGACAACGTGTCCAATCGTGAACGACTGATGGAAACGTGTGGAGATGGATATGTGGGGGTTCACTGAGTAGATGCCCTGAAGGAGAAATCTGATCAGGGGCCCGTGACTATACGCTAGGTAAACCGGGTATAAAAACCATGAAAGGTGGCCCAAAATCTCTTCCTTTTATTTTATTTCTATGTTGGTGACAGTCAAG
# modifications: Avisivirus A
# Test system: HEK293 cells
# Type: cell-based, human
# Conditions: luminescence from secreted Gluc in supernatant 24 hours after transfection of HEK293 cells; circular RNA encoding Gluc with the named IRES (UTR truncated to 675 nt)
row,Molecule,Expression
1,B1,4.51E+06
2,B2,1.10E+05
3,B3,8.68E+04
4,B4,1.08E+05
5,B5,1.09E+05
6,B6,5.08E+05
7,B7,2.69E+05
8,B8,1.10E+05
9,B9,8.79E+05
10,B10,1.91E+05
